{
  "source": "paper PMC5389562",
  "key": {"mCherry-U2AF35, Q01081 [1]": {"target": "T1, mCherry-U2AF35, Q01081", "T1 chain": "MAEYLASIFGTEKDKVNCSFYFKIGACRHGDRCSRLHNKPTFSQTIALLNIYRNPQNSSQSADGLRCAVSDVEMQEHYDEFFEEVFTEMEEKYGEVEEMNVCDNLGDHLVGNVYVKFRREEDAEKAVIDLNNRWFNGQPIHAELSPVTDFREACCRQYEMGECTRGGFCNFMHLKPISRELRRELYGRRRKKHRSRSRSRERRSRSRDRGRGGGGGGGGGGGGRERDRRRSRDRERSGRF", "experiment": "single-molecule photobleaching step counting (TIRF microscopy); nuclear extract in splicing conditions, no exogenous pre-mRNA, with ATP (+ATP), in the presence of ribonuclease; diluted and applied to cover slips; labeled protein spots bleaching in one or two steps", "conditions": "remark: other sources report otherwise"}, "mCherry-U2AF35, Q01081 [2]": {"target": "T1, mCherry-U2AF35, Q01081", "experiment": "single-molecule photobleaching step counting (TIRF microscopy); nuclear extract in splicing conditions, no exogenous pre-mRNA, ATP depleted (−ATP), in the presence of ribonuclease; diluted and applied to cover slips; labeled protein spots bleaching in one or two steps", "conditions": "remark: other sources report otherwise"}},
  "data": [
    {"binder": "mCherry-U2AF35, Q01081 1-240 (natural protein) MAEYLASIFGTEKDKVNCSFYFKIGACRHGDRCSRLHNKPTFSQTIALLNIYRNPQNSSQSADGLRCAVSDVEMQEHYDEFFEEVFTEMEEKYGEVEEMNVCDNLGDHLVGNVYVKFRREEDAEKAVIDLNNRWFNGQPIHAELSPVTDFREACCRQYEMGECTRGGFCNFMHLKPISRELRRELYGRRRKKHRSRSRSRERRSRSRDRGRGGGGGGGGGGGGRERDRRRSRDRERSGRF", "values": [
      {"measurement": "molecules bleaching in 1 step (of 2 versus 1 steps), +ATP", "setting": "mCherry-U2AF35, Q01081 [1]", "value": 218, "unit": "molecules"},
      {"measurement": "molecules bleaching in 2 steps (of 2 versus 1 steps), +ATP", "setting": "mCherry-U2AF35, Q01081 [1]", "value": 21, "unit": "molecules"},
      {"measurement": "molecules bleaching in 1 step (of 2 versus 1 steps), −ATP", "setting": "mCherry-U2AF35, Q01081 [2]", "value": 189, "unit": "molecules"},
      {"measurement": "molecules bleaching in 2 steps (of 2 versus 1 steps), −ATP", "setting": "mCherry-U2AF35, Q01081 [2]", "value": 33, "unit": "molecules"}
    ]}
  ]
}
